Laboratory results as given in patent US20040136998A1 (published 2004).

Target: T1, prostate specific membrane antigen (PSMA) (human, UniProt Q04609 1-750)
T1 construct: whole, on cells; Target in all assays is PSMA on LNCaP (LNCap) cells or LNCaP membrane preparation; also called human PSMA
Assay: ELISA on plates coated with LNCap membrane preparation; purified antibody; reference: J415 chimeric antibody

T1 sequence (Q04609 whole entry): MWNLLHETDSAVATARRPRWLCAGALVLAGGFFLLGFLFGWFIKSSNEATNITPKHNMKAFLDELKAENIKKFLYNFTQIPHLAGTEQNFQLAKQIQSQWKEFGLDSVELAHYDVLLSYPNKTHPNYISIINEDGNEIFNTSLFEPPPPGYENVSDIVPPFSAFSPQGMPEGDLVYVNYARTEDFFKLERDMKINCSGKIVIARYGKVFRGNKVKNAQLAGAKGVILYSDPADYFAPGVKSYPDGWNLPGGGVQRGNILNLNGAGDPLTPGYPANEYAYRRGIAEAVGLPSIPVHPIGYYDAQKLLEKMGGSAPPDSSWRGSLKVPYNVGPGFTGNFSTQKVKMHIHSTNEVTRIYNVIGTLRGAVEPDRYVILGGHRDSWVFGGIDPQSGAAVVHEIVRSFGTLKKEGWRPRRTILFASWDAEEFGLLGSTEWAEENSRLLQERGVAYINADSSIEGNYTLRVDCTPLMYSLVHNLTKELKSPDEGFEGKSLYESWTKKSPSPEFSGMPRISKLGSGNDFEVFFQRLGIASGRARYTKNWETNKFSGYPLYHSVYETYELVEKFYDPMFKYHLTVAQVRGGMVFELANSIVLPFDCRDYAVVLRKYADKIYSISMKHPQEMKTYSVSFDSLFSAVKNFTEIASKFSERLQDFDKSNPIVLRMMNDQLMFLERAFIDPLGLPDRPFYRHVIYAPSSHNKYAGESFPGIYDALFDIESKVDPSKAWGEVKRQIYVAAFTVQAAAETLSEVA

B1: deimmunized J415 antibody, heavy chain version 2 with light chain version 5 (antibody, V domains shown)
VH: EVKLEESGGGLVQPGGSMKISCVASGFTFSNYWMNWVRQTPEKGLEWVALIRSQSNNFATHYAESVKGRVIISRDDSKSSVYLQMNSLRAEDTAVYYCTRRWNNFWGQGTTVTVSS
VL: NIVMTQFPKSMSASAGERMTLTCKASENVGTYVSWYQQKPTQSPKMLIYGASNRFTGVPDRFSGSGSGTDFILTISSVQAEDLVDYYCGQSYTFPYTFGGGTKLEMK
How did the “fold less binding than the chimeric antibody” value turn out when B1 was run?
The value was 2 fold.
